Reference: article PMC8298264, “Function of cofactor Akirin2 in the regulation of gene expression in model human neutrophil-like HL60 cells” (Bioscience Reports, 2021)

B1: sp¦Q7Z3D6¦GLUCM_HUMAN (protein, UniProt Q7Z3D6 29-616, looked up)
D-glutamate cyclase, …: TSSMAGELRPASLVVLPRSLAPAFERFCQVNTGPLPLLGQSEPEKWMLPPQGAISETRMGHPQFWKYEFGACTGSLASLEQYSEQLKDMVAFFLGCSFSLEEALEKAGLPRRDPAGHSQTTVPCVTHAGFCCPLVVTMRPIPKDKLEGLVRACCSLGGEQGQPVHMGDPELLGIKELSKPAYGDAMVCPPGEVPVFWPSPLTSLGAVSSCETPLAFASIPGCTVMTDLKDAKAPPGCLTPERIPEVHHISQDPLHYSIASVSASQKIRELESMIGIDPGNRGIGHLLCKDELLKASLSLSHARSVLITTGFPTHFNHEPPEETDGPPGAVALVAFLQALEKEVAIIVDQRAWNLHQKIVEDAVEQGVLKTQIPILTYQGGSVEAAQAFLCKNGDPQTPRFDHLVAIERAGRAADGNYYNARKMNIKHLVDPIDDLFLAAKKIPGISSTGVGDGGNELGMGKVKEAVRRHIRHGDVIACDVEADFAVIAGVSNWGGYALACALYILYSCAVHSQYLRKAVGPSRAPGDQAWTQALPSVIKEEKMLGILVQHKVRSGVSGIVGMEVDGLPFHNTHAEMIQKLVDVTTAQV
B2: sp¦Q86UP2¦KTN1_HUMAN (protein, UniProt Q86UP2 1-1357, looked up)
Kinectin: MEFYESAYFIVLIPSIVITVIFLFFWLFMKETLYDEVLAKQKREQKLIPTKTDKKKAEKKKNKKKEIQNGNLHESDSESVPRDFKLSDALAVEDDQVAPVPLNVVETSSSVRERKKKEKKQKPVLEEQVIKESDASKIPGKKVEPVPVTKQPTPPSEAAASKKKPGQKKSKNGSDDQDKKVETLMVPSKRQEALPLHQETKQESGSGKKKASSKKQKTENVFVDEPLIHATTYIPLMDNADSSPVVDKREVIDLLKPDQVEGIQKSGTKKLKTETDKENAEVKFKDFLLSLKTMMFSEDEALCVVDLLKEKSGVIQDALKKSSKGELTTLIHQLQEKDKLLAAVKEDAAATKDRCKQLTQEMMTEKERSNVVITRMKDRIGTLEKEHNVFQNKIHVSYQETQQMQMKFQQVREQMEAEIAHLKQENGILRDAVSNTTNQLESKQSAELNKLRQDYARLVNELTEKTGKLQQEEVQKKNAEQAATQLKVQLQEAERRWEEVQSYIRKRTAEHEAAQQDLQSKFVAKENEVQSLHSKLTDTLVSKQQLEQRLMQLMESEQKRVNKEESLQMQVQDILEQNEALKAQIQQFHSQIAAQTSASVLAEELHKVIAEKDKQIKQTEDSLASERDRLTSKEEELKDIQNMNFLLKAEVQKLQALANEQAAAAHELEKMQQSVYVKDDKIRLLEEQLQHEISNKMEEFKILNDQNKALKSEVQKLQTLVSEQPNKDVVEQMEKCIQEKDEKLKTVEELLETGLIQVATKEEELNAIRTENSSLTKEVQDLKAKQNDQVSFASLVEELKKVIHEKDGKIKSVEELLEAELLKVANKEKTVQDLKQEIKALKEEIGNVQLEKAQQLSITSKVQELQNLLKGKEEQMNTMKAVLEEKEKDLANTGKWLQDLQEENESLKAHVQEVAQHNLKEASSASQFEELEIVLKEKENELKRLEAMLKERESDLSSKTQLLQDVQDENKLFKSQIEQLKQQNYQQASSFPPHEELLKVISEREKEISGLWNELDSLKDAVEHQRKKNNDLREKNWEAMEALASTEKMLQDKVNKTSKERQQQVEAVELEAKEVLKKLFPKVSVPSNLSYGEWLHGFEKKAKECMAGTSGSEEVKVLEHKLKEADEMHTLLQLECEKYKSVLAETEGILQKLQRSVEQEENKWKVKVDESHKTIKQMQSSFTSSEQELERLRSENKDIENLRREREHLEMELEKAEMERSTYVTEVRELKDLLTELQKKLDDSYSEAVRQNEELNLLKAQLNETLTKLRTEQNERQKVAGDLHKAQQSLELIQSKIVKAAGDTTVIENSDVSPETESSEKETMSVSLNQTVTQLQQLLQAVNQQLTKEKEHYQVLE
B3: sp¦P36776¦LONM_HUMAN (protein, UniProt P36776 68-959, looked up)
Lon protease homolog, …: FWEASSRGGGAFSGGEDASEGGAEEGAGGAGGSAGAGEGPVITALTPMTIPDVFPHLPLIAITRNPVFPRFIKIIEVKNKKLVELLRRKVRLAQPYVGVFLKRDDSNESDVVESLDEIYHTGTFAQIHEMQDLGDKLRMIVMGHRRVHISRQLEVEPEEPEAENKHKPRRKSKRGKKEAEDELSARHPAELAMEPTPELPAEVLMVEVENVVHEDFQVTEEVKALTAEIVKTIRDIIALNPLYRESVLQMMQAGQRVVDNPIYLSDMGAALTGAESHELQDVLEETNIPKRLYKALSLLKKEFELSKLQQRLGREVEEKIKQTHRKYLLQEQLKIIKKELGLEKDDKDAIEEKFRERLKELVVPKHVMDVVDEELSKLGLLDNHSSEFNVTRNYLDWLTSIPWGKYSNENLDLARAQAVLEEDHYGMEDVKKRILEFIAVSQLRGSTQGKILCFYGPPGVGKTSIARSIARALNREYFRFSVGGMTDVAEIKGHRRTYVGAMPGKIIQCLKKTKTENPLILIDEVDKIGRGYQGDPSSALLELLDPEQNANFLDHYLDVPVDLSKVLFICTANVTDTIPEPLRDRMEMINVSGYVAQEKLAIAERYLVPQARALCGLDESKAKLSSDVLTLLIKQYCRESGVRNLQKQVEKVLRKSAYKIVSGEAESVEVTPENLQDFVGKPVFTVERMYDVTPPGVVMGLAWTAMGGSTLFVETSLRRPQDKDAKGDKDGSLEVTGQLGEVMKESARIAYTFARAFLMQHAPANDYLVTSHIHLHVPEGATPKDGPSAGCTIVTALLSLAMGRPVRQNLAMTGEVSLTGKILPVGGIKEKTIAAKRAGVTCIVLPAENKKDFYDLAAFITEGLEVHFVEHYREIFDIAFPDEQAEALAVER
B4: sp¦O95202¦LETM1_HUMAN (protein, UniProt O95202 116-739, looked up)
Mitochondrial proton/calcium …: DDSVVEKSLKSLKDKNKKLEEGGPVYSPPAEVVVKKSLGQRVLDELKHYYHGFRLLWIDTKIAARMLWRILNGHSLTRRERRQFLRICADLFRLVPFLVFVVVPFMEFLLPVAVKLFPNMLPSTFETQSLKEERLKKELRVKLELAKFLQDTIEEMALKNKAAKGSATKDFSVFFQKIRETGERPSNEEIMRFSKLFEDELTLDNLTRPQLVALCKLLELQSIGTNNFLRFQLTMRLRSIKADDKLIAEEGVDSLNVKELQAACRARGMRALGVTEDRLRGQLKQWLDLHLHQEIPTSLLILSRAMYLPDTLSPADQLKSTLQTLPEIVAKEAQVKVAEVEGEQVDNKAKLEATLQEEAAIQQEHREKELQKRSEVAKDFEPERVVAAPQRPGTEPQPEMPDTVLQSETLKDTAPVLEGLKEEEITKEEIDILSDACSKLQEQKKSLTKEKEELELLKEDVQDYSEDLQEIKKELSKTGEEKYVEESKASKRLTKRVQQMIGQIDGLISQLEMDQQAGKLAPANGMPTGENVISVAELINAMKQVKHIPESKLTSLAAALDENKDGKVNIDDLVKVIELVDKEDVHISTSQVAEIVATLEKEEKVEEKEKAKEKAEKEVAEVKS
B5: sp¦Q9Y617¦SERC_HUMAN (protein, UniProt Q9Y617 1-370, looked up)
Phosphoserine aminotransferase: MDAPRQVVNFGPGPAKLPHSVLLEIQKELLDYKGVGISVLEMSHRSSDFAKIINNTENLVRELLAVPDNYKVIFLQGGGCGQFSAVPLNLIGLKAGRCADYVVTGAWSAKAAEEAKKFGTINIVHPKLGSYTKIPDPSTWNLNPDASYVYYCANETVHGVEFDFIPDVKGAVLVCDMSSNFLSKPVDVSKFGVIFAGAQKNVGSAGVTVVIVRDDLLGFALRECPSVLEYKVQAGNSSLYNTPPCFSIYVMGLVLEWIKNNGGAAAMEKLSSIKSQTIYEIIDNSQGFYVCPVEPQNRSKMNIPFRIGNAKGDDALEKRFLDKALELNMLSLKGHRSVGGIRASLYNAVTIEDVQKLAAFMKKFLEMHQL

Tested on: human HL60 cells
Test: SWATH-MS proteomics, differential protein representation, akirin2 KO vs WT HL60 cells
Type: cell-based
Details: sheet "Under-represented in KO"
How it was run: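 Proteins from WT and akirin2 KO HL60 cells (n=3 biological replicates) were FASP trypsin-digested and analyzed by SWATH-MS DIA with variable windows against an IDA-derived spectral library. Identifications at 1% global FDR; quantities normalized to total area sums of all detected proteins.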

| Molecule | Fold Change (KO vs WT HL60 cells) | Log (Fold Change) (KO vs WT HL60 cells) | Fold Change (akirin2 KO vs WT HL60 cells) | Log (Fold Change) (akirin2 KO vs WT HL60 cells) |
| --- | --- | --- | --- | --- |
| B1 | 0.5156 | -0.2877 | – | – |
| B2 | – | – | 0.24 | -0.6198 |
| B3 | 0.5023 | -0.2991 | – | – |
| B4 | 0.5097 | -0.2927 | – | – |
| B5 | 0.4967 | -0.3039 | – | – |
